In the supplement of paper PMC11865577:

Legend:
Experiment in all cases: pull-down binding Z-score (relative to library population); higher = stronger binding
[1] = system: G-clamp-N3 (biotin conjugate); settings: RNA library: Library-1 (pre-miRNA loops + repeats)
Outline: (§1)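 To score binding, a beads-only signal was subtracted, barcoded replicate probes were averaged with the highest and lowest dropped, and the value was converted to a Z-score using the library mean and standard deviation. The input was 1 μg of Cy5- or Cy3-end-labelled RNA library, heat-folded in phosphate/NaCl/KCl buffer and mixed for 60 min at 25 °C with streptavidin beads carrying 100 pmol of biotin-conjugated small molecule. Bound RNA was eluted in hot SDS and hybridised to a DNA barcode microarray at 55.5 °C for 20 h.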

[2] = system: TO-3-N3-2 (biotin conjugate); settings: RNA library: Library-2
Outline: as §1

[3] = system: TO-N3-2 (biotin conjugate); settings: RNA library: Library-2
Outline: as §1

TO-N3 (biotin conjugate) = settings: RNA library: Library-2
Outline: as §1

[4] = system: TO-3-N3 (biotin conjugate); settings: RNA library: Library-2
Outline: as §1

| Sequence | pull-down binding Z-score [1] | pull-down binding Z-score [2] | pull-down binding Z-score [3] | pull-down binding Z-score (TO-N3 (biotin conjugate)) | pull-down binding Z-score [4] |
| --- | --- | --- | --- | --- | --- |
| CAGUGACAUGCGUUUAAC [hsa-mir-4485] | -0.778 | 0.112 | 0.0479 | 0.394 | 0.345 |
| CAGUGAGCCAAGAUCGUGCCACUG [hsa-mir-1273d] | -0.48 | -0.179 | -0.0234 | -0.147 | -0.172 |
| CAGUGAGCUAUGAUCAUGUCCCUG [hsa-mir-1254-2] | 0.526 | -0.1 | 0.362 | 0.105 | 0.0243 |
| CAGUGCACCUUCAUGAACCG [hsa-mir-938] | -1.11 | 0.209 | 1.14 | 0.758 | 0.249 |
| CAGUGCUUUUAGAAAAUUUGUGUG [hsa-mir-581] | -0.904 | 0.00216 | -0.187 | -0.558 | -0.514 |
| CAGUGGCAGAUUUUCCCAUAG [hsa-mir-4727] | -1.12 | -0.261 | -0.00285 | -0.439 | -0.543 |
| CAGUGGCAUCUGUCAUUG [hsa-mir-4663] | -0.635 | -0.425 | -0.784 | -0.508 | -0.159 |
| CAGUGGGGACAUG [hsa-mir-4531] | -0.559 | 1.52 | 0.957 | 1.77 | 2.18 |
| CAGUGGUGCCAUCUCCCCUG [hsa-mir-5008] | -1.49 | -0.353 | 0.471 | -0.122 | -0.377 |
| CAGUGUUAGCUCCAGAAGCAUUG [hsa-mir-3170] | 1.14 | -0.107 | 0.644 | 0.171 | 0.0378 |
| CAGUUGUACUGUGGCUG [hsa-mir-1291] | 0.37 | 0.154 | 0.0227 | 0.076 | 0.0428 |
| CAUACAUAUGCCUACUACUACUUUCAUAUGUAGGCAUAUGUAUG [hsa-mir-7852] | -0.626 | -0.144 | -0.89 | -0.8 | -0.502 |
| CAUACAUUUUGAAUAUGUAUG [hsa-mir-299] | -0.304 | -0.504 | -1.29 | 0.336 | 0.734 |
| CAUAUGUAUGUAUGUAUGUCUGUUACACAUAUG [hsa-mir-3688-1] | -0.787 | -0.0225 | -0.421 | -0.818 | -0.769 |
| CAUAUGUGUAACAGACAUACAUACAUACAUAUG [hsa-mir-3688-2] | -0.866 | -0.463 | -1.31 | -1.02 | -0.818 |
| CAUCACUGGAAUGUUCCAGCGACU [hsa-mir-3654] | -0.704 | -0.469 | -0.17 | -0.267 | -0.233 |
| CAUCAUUUGCACUACUGAUACUUGGGGUCAGAUAAUUGUUUGUGGUG [hsa-mir-4447] | 0.115 | -0.334 | -0.616 | -0.914 | -0.801 |
| CAUCCCGGACGGCCUGUGAGGGAUG [hsa-mir-4787] | 1.57 | 0.0114 | 0.952 | 1.1 | 0.8 |
| CAUGAGCCCUUUGGAAAGGUCUCGUG [hsa-mir-4711] | -0.633 | -0.105 | -0.478 | 0.16 | 0.395 |

| Sequence | pull-down binding Z-score [1] | pull-down binding Z-score [2] | pull-down binding Z-score [3] | pull-down binding Z-score (TO-N3 (biotin conjugate)) | pull-down binding Z-score [4] |
| --- | --- | --- | --- | --- | --- |
| CAUGAUUUGGAAAAAUUACUG [hsa-mir-6128] | -0.888 | -0.0805 | -0.315 | -0.151 | -0.174 |
| CAUGCAGCAUGCUUGUCUG [hsa-mir-767] | -0.359 | -0.377 | 0.0549 | -0.247 | -0.275 |
| CAUGCAGGCCACACUGACGGUAACGUUGCAGG [hsa-mir-431] | 1.54 | 0.263 | 1.01 | 1.08 | 0.647 |
| CAUGCAUGUGUCUAGAAAUAUGUUUU [hsa-mir-507] | 0.0271 | 0.0237 | 0.104 | 0.0527 | -0.147 |
| CAUGCGCUAUCUCUGUGUCGUAUG [hsa-mir-380] | -0.269 | -0.301 | -0.0393 | -0.0621 | -0.0846 |
| CAUGUAUGUGUAUAUACAUAUAUAUG [hsa-mir-297] | 1.71 | -0.125 | -0.648 | 0.218 | 0.635 |
| CAUGUGCUGAGUUCGUGCCAUAUG [hsa-mir-654] | 0.492 | -0.228 | 0.41 | -0.299 | -0.615 |
| CAUGUGGUGGAACGAUGGAAACGGAACAUG [hsa-mir-218-2] | 1.07 | -0.027 | 1 | 0.162 | -0.477 |
| CAUGUUAAGUGUUGUCCUACAG [hsa-mir-5087] | -0.819 | -0.142 | 0.127 | -0.368 | -0.483 |
| CAUUAACGUGGACCAGACAAUAUUAAUG [hsa-mir-4491] | -1.14 | -0.12 | -0.0295 | -0.0907 | -0.339 |
| CAUUACUAAACUCAGUAAUG [hsa-mir-451b] | 0.93 | -0.862 | -1.68 | -1.23 | -0.822 |
| CAUUCACAUAGACUAUAAUUGAAUG [hsa-mir-652] | 0.721 | -0.353 | -0.703 | -0.944 | -0.751 |
| CAUUCUUUGCUA [hsa-mir-567] | -1.3 | -0.257 | -0.53 | 0.664 | 0.85 |
| CAUUGGUGUAAAGCUGGAGACCCACUG [hsa-mir-324] | 0.528 | 0.0332 | 1.09 | 0.738 | 0.527 |
| CAUUGUAACAUGAUAGUG [hsa-mir-4264] | 0.389 | -0.295 | -0.45 | -0.441 | -0.752 |
| CAUUGUAAUAGUUCAUAUGGGCACUG [hsa-mir-3660] | 2.34 | -0.109 | 0.0148 | 0.0211 | -0.0141 |
| CAUUUCAGCGUAUAUAUGUAUAUGUGGCUGUG [hsa-mir-19b-2] | 2.71 | 0.559 | 0.0211 | 1.11 | 1.07 |
| CAUUUCCUUCAUGAUUAGGAAUACUACUUUGAAAUG [hsa-mir-4712] | -0.338 | -0.179 | -0.896 | -0.856 | -0.641 |
